The labels stand for the following.
B1: Putative E3 ubiquitin-protein ligase UNKL (Homo sapiens), Q9H9P5 (parent)
chain: MPSVSKAAAAALSGSPPQTEKPTHYRYLKEFRTEQCPLFSQHKCAQHRPFTCFHWHFLNQRRRRPLRRRDGTFNYSPDVYCSKYNEATGVCPDGDECPYLHRTTGDTERKYHLRYYKTGTCIHETDARGHCVKNGLHCAFAHGPLDLRPPVCDVRELQAQEALQNGQLGGGEGVPDLQPGVLASQAMIEKILSEDPRWQDANFVLGSYKTEQCPKPPRLCRQGYACPHYHNSRDRRRNPRRFQYRSTPCPSVKHGDEWGEPSRCDGGDGCQYCHSRTEQQFHPESTKCNDMRQTGYCPRGPFCAFAHVEKSLGMVNEWGCHDLHLTSPSSTGSGQPGNAKRRDSPAEGGPRGSEQDSKQNHLAVFAAVHPPAPSVSSSVASSLASSAGSGSSSPTALPAPPARALPLGPASSTVEAVLGSALDLHLSNVNIASLEKDLEEQDGHDLGAAGPRSLAGSAPVAIPGSLPRAPSLHSPSSASTSPLGSLSQPLPGPVGSSAMTPPQQPPPLRSEPGTLGSAASSYSPLGLNGVPGSIWDFVSGSFSPSPSPILSAGPPSSSSASPNGAELARVRRQLDEAKRKIRQWEESWQQVKQVCDAWQREAQEAKERARVADSDRQLALQKKEEVEAQVIFQLRAKQCVACRERAHGAVLRPCQHHILCEPCAATAPECPYCKGQPLQW

Results on two variants are retold here after IntAct's records for PubMed 20148946.

In the experiment the parent is B1. The note with it: with ubi4p_yeast UBI4, P0CG63.
Chain of ubi4p_yeast UBI4, P0CG63 (P0CG63 whole entry): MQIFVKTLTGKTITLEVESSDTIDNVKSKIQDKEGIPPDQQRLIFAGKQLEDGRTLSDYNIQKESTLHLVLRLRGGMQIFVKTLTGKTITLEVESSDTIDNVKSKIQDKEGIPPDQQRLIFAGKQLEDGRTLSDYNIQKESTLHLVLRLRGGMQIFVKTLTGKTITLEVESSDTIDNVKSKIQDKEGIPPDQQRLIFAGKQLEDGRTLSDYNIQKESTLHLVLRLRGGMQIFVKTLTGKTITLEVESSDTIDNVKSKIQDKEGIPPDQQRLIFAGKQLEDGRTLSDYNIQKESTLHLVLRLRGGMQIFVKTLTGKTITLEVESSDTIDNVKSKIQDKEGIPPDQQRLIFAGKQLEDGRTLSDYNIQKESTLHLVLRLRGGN
For C670A, the “effect of a mutation on the interaction” value is given as “decreasing interaction”. Under C639A stands “decreasing interaction”.
